# Laboratory results as given in paper PMC3137230 (ACS Chemical Biology, 2011).
# Biological target: the molecule itself
# Test: crystal structure
protein,measurement,value
"MmOmeRS, C-terminal catalytic domain (residues 185-454) of the evolved Methanosarcina mazei pyrrolysyl-tRNA synthetase (enzyme, UniProt Q8PWY1 185-454, looked up) ASAPALTKSQTDRLEVLLNPKDEISLNSGKPFRELESELLSRRKKDLQQIYAEERENYLGKLEREITRFFVDRGFLEIKSPILIPLEYIERMGIDNDTELSKQIFRVDKNFCLRPMLTPNLYNYLRKLDRALPDPIKIFEIGPCYRKESDGKEHLEEFTMLVFWQMGSGCTRENLESIITDFLNHLGIDFKIVGDSCMVFGDTLDVMHGDLELSSALVGPIPLDREWGIDKPWIGAGFGLERLLKVKHDFKNIKRAARSESYYNGISTNL",binding result,binds
